The experiment addresses T1, human c-Met/Fc fusion protein (R&D Systems) (human, UniProt P08581 25-932).
T1 construct: Bought reagent; Coated on the ELISA plate at 2 ug/mL; also called human c-Met/Fc protein; not shown: Fc part of the bought fusion protein; not described
Kind of experiment: ELISA, human c-Met/Fc coated at 2 ug/mL, hybridoma culture, anti-mouse IgG-HRP. The method, then: Human c-Met/Fc fusion protein was seeded in an amount of 50 μL (2 μg/mL)/well to microtiter plates and allowed to adhere to the surface of each well. The antibody that remained unbound was removed by washing.
The hybridoma cell culture obtained in Reference Example 1.1.2 was added in an amount of 50 μL to each well of the plates and incubated for 1 hour. The cells remaining unreacted were washed out with a sufficient amount of Tris-buffered saline and Tween 20 (TBST). Goat anti-mouse IgG-horseradish peroxidase (HRP) was added to the plates and incubated for 1 hour at room temperature. The plates were washed with a sufficient amount of TBST, followed by reacting the peroxidase with a substrate (OPD). Absorbance at 450 nm was measured on an ELISA reader.
In general terms: In an ELISA, binding on a coated surface is turned into a signal by an enzyme label.

T1 sequence (P08581 25-932 limits assumed): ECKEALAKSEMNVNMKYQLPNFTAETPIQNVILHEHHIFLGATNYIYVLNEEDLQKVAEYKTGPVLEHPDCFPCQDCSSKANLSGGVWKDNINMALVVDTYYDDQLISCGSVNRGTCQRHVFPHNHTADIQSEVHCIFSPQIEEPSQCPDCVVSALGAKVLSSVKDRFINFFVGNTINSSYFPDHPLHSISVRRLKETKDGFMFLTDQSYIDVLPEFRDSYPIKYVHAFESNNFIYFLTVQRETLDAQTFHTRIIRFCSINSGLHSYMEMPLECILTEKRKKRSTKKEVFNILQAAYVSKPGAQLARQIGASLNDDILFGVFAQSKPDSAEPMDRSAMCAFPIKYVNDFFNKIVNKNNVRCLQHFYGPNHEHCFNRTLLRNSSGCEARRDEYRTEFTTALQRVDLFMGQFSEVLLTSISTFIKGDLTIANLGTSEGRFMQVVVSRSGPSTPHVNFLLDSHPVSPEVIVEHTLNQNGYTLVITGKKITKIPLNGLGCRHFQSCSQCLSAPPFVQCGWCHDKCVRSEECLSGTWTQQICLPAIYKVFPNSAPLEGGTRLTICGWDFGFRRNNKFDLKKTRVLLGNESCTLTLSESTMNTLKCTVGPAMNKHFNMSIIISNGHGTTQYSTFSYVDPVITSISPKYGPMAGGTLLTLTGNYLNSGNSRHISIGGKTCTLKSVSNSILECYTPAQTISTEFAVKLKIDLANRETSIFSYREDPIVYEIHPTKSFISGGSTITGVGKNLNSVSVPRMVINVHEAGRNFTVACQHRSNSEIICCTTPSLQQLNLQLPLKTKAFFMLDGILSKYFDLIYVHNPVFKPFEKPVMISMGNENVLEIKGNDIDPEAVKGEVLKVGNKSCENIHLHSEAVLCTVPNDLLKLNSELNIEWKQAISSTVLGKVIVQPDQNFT

B1: AbF46, mouse monoclonal antibody to c-Met (antibody, V domains shown)
VH: EVKLVESGGGLVQPGGSLRLSCATSGFTFTDYYMSWVRQPPGKALEWLGFIRNKANGYTTEYSASVKGRFTISRDNSQSILYLQMDTLRAEDSATYYCARDNWFAYWGQGTLVTVSA
VL: DILMTQSPSSLTVSAGEKVTMSCKSSQSLLASGNQNNYLAWHQQKPGRSPKMLIIWASTRVSGVPDRFIGSGSGTDFTLTINSVQAEDLAVYYCQQSYSAPLTFGAGTKLELK
notes: Tested as hybridoma culture supernatant in the selection ELISA; also called monoclonal antibody produced by hybridoma KCLRF-BP-00220
As to B1, the binding result is reported as “binds”.

The values above are taken from US20140294830A1 (SAMSUNG LIFE WELFARE FOUNDATION, published 2014).
